# From article PMC12669584
# Biological target: HIV-1 BaL envelope glycoprotein (Env) trimer on AT-2 inactivated virions (HIV-1 (BaL))
# Assay: cryo-EM structure
substance,measurement,value
anti-coreceptor binding site (CoRBS) antibody 17b (full IgG),stoichiometry N (17b Abs per Env trimer),3
